In patent US20260191981A1 (ARROWHEAD PHARMACEUTICALS, published 2026):
Numbering of substitutions follows the chain as printed. Blank lines part the entries; values can stand above or below the binder they belong to.

Columns and labels:
[1] = molecular target: T1, human transferrin receptor 1 (hTfR1) (human, UniProt P02786 89-760, limits assumed); test: competition ELISA, Fab
T1 construct: The selections used the biotinylated ECD domain of hTfR1

[2] = molecular target: T2, his-tagged hTfR1 (Acro Biosystems p/n CD1-H5243) (human, UniProt P02786 89-760); test: SPR, Biacore X100, His-tagged TfR1 captured by anti-His
T2 construct: Bought reagent of the SPR assay
Procedure: Samples were analyzed via Surface Plasmon Resonance (SPR) to determine kinetics against human transferrin receptor 1 (hTfR1). Briefly, a Biacore X100 (Cytiva) was used for SPR measurements using a CM5 chip (carboxymethylated dextran surface, Cytiva p/n BR100399) with anti-histidine antibody irreversibly immobilized on the surface of both flow cells for the reversible capture of his-tagged hTfR1 (Acro Biosystems p/n CD1-H5243). The anti-histidine antibody was irreversibly immobilized via amine coupling using Cytiva provided Amine Coupling Kit (p/n BR100050) and His Capture Kit (p/n 28995056). […] Sample diluent was prepared in house and is composed of 10 mM HEPES buffer pH 7.4, 150 mM NaCl, 3 mM EDTA, and 0.05% Tween 20. Cytiva caps and vials compatible for Biacore X100 are used for sample analysis. Each analysis cycle consists of a capture step followed by sample or blank injection, and finally a regeneration step that removes any sample and hTfR1 on the sensor surface. The capture step was performed at 5 μL/min with a contact time of 24 seconds over the active flow cell only, followed by a fluidics wash with 0.1% Tween 20. Generally, 2 μg/mL hTfR1 is a sufficient concentration to observe adequate hTfR1 captured consistently between cycles. Sample or buffer was injected at 30 μL/min with a contact time of 180 seconds and a dissociation time of 180 seconds followed by a fluidics wash with 0.1% Tween 20. A 10 mM glycine solution at pH 1.5 (provided in His Capture Kit) was used for regeneration at 30 μL/min with a 60 second contact time. A cycle was performed for each sample concentration analyzed along with one cycle repeating one concentration for variability evaluation and 2-3 buffer cycles. Results were analyzed in Biacore Evaluation Software. Buffer cycles were averaged and subtracted from sample injections prior to kinetic fitting. A monovalent or kinetic fit was specified as relevant for the sample analyzed. Accuracy of the fit was evaluated and data points are excluded as applicable. […]

[3] = molecular target: T1, human transferrin receptor 1 (hTfR1); test: competition phage ELISA (phage-displayed Fab)
[4] = molecular target: T3, cynomolgus monkey transferrin receptor 1 (cTfR1) (cynomolgus monkey, UniProt H9EXL1 89-760 (rhesus entry)); test: competition ELISA, Fab
T3 construct: The ELISA against cTfR1 is not described in the text

[5] = molecular target: T3, cynomolgus monkey transferrin receptor …; test: competition phage ELISA (phage-displayed Fab)
[6] = molecular target: T4, his-tagged cTfR1 (Acro Biosystems p/n TFR-C524a) (cynomolgus monkey, UniProt H9EXL1 89-760 (rhesus entry)); test: SPR, Biacore X100, His-tagged TfR1 captured by anti-His
T4 construct: Bought reagent of the SPR assay
Procedure: Samples were analyzed via Surface Plasmon Resonance (SPR) to determine kinetics against cynomolgus monkey transferrin receptor 1 (cTfR1). Briefly, a Biacore X100 (Cytiva) was used for SPR measurements using a CM5 chip (carboxymethylated dextran surface, Cytiva p/n BR100399) with anti-histidine antibody irreversibly immobilized on the surface of both flow cells for the reversible capture of his-tagged cTfR1 (Acro Biosystems p/n TFR-C524a). The anti-histidine antibody was irreversibly immobilized via amine coupling using Cytiva provided Amine Coupling Kit (p/n BR100050) and His Capture Kit (p/n 28995056). […] Sample diluent was prepared in house and is composed of 10 mM HEPES buffer pH 7.4, 150 mM NaCl, 3 mM EDTA, and 0.05% Tween 20. Cytiva caps and vials compatible for Biacore X₁₀₀ were used for sample analysis. Each analysis cycle consists of a capture step followed by sample or blank injection, and finally a regeneration step that removes any sample and cTfR1 on the sensor surface. The capture step was performed at 5 μL/min with a contact time of 24 seconds over the active flow cell only, followed by a fluidics wash with 0.1% Tween 20. Generally, 2 μg/mL hTfR1 was a sufficient concentration to observe adequate hTfR1 captured consistently between cycles. Sample or buffer was injected at 30 μL/min with a contact time of 180 seconds and dissociation time of 180 seconds followed by a fluidics wash with 0.1% Tween 20. A 10 mM glycine solution at pH 1.5 (provided in His Capture Kit) was used for regeneration at 30 μL/min with a 60 second contact time. A cycle was performed for each sample concentration analyzed along with one cycle repeating one concentration for variability evaluation and 2-3 buffer cycles. Results were analyzed in Biacore Evaluation Software. Buffer cycles were averaged and subtracted from sample injections prior to kinetic fitting. A monovalent or kinetic fit was specified as relevant for the sample analyzed. Accuracy of the fit is evaluated and data points are excluded as applicable.

T4 sequence (chain, as listed by the source): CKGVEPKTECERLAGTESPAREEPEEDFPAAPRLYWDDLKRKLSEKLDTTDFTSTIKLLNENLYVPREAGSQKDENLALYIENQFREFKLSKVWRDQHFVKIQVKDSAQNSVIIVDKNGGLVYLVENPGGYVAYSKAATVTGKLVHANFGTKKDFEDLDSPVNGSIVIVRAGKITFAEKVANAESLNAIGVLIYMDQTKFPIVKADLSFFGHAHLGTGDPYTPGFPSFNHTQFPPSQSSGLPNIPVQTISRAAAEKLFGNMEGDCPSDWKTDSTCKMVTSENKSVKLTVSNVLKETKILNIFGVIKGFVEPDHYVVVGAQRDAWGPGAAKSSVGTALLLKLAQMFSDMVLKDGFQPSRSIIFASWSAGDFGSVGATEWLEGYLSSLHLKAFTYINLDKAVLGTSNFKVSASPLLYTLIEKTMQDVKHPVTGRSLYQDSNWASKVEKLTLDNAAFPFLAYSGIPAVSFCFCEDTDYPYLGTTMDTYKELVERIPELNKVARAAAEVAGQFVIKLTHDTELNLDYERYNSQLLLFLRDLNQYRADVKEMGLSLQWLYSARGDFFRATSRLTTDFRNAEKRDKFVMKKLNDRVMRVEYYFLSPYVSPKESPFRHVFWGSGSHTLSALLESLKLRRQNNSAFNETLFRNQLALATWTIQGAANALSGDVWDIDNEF
T3 sequence (chain, as listed by the source): as above
T2 sequence (P02786 89-760 limits assumed): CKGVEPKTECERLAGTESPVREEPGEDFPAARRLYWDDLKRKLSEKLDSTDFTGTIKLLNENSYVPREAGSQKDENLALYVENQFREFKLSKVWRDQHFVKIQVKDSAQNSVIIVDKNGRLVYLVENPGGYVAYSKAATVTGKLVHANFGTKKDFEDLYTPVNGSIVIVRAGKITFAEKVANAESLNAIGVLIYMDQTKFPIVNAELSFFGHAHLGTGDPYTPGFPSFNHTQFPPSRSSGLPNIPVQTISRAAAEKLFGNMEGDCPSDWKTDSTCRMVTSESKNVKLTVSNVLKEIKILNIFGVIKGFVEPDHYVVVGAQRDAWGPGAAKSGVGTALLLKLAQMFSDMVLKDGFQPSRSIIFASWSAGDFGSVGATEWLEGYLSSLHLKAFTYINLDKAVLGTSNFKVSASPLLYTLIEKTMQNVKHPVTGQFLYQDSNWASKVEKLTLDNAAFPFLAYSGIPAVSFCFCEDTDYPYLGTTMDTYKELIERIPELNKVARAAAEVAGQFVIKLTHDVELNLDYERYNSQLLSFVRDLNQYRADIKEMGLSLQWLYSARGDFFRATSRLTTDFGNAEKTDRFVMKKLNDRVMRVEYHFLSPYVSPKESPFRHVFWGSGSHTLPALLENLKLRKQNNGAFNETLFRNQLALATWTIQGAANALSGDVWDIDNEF
T1 sequence (P02786 89-760 limits assumed): as above

Kd [1]: 1.11 nM
Kd [2]: 0.923 nM
koff [2]: 0.0012 s⁻¹
kon [2]: 1.3e+06 M⁻¹ s⁻¹
Kd [3]: 0.49 nM
Kd [4]: 15.3 nM
Kd [5]: 1.39 nM
Kd [6]: 4.52 nM
koff [6]: 0.00582 s⁻¹
kon [6]: 1.29e+06 M⁻¹ s⁻¹
B1: Fab0070 (Fab, V domains shown)
VH: EVQLVESGGGLVQPGGSLRLSCATSGFTFTSYWMHWVRQAPGKGLEWVAEINPTNGRTNYIEKFKSRITLSVDKSKSTVYLQMNSLRAEDTAVYYCARGTRAYHYWGQGTLVTVSS
VL: DIQLTQSPSSLSASVGDRVTITCRASDKLYSNLAWYQQKPGKAPKLLIYDATLLASGVPSRFSGSGSGTDYTLTISSLQPEDFATYYCQHFWGTPLTFGQGTKVEIKR

Kd [1]: 7.28 nM
Kd [2]: 7.68 nM
koff [2]: 0.00499 s⁻¹
kon [2]: 649000 M⁻¹ s⁻¹
Kd [3]: 2.8 nM
Kd [4]: 33.8 nM
Kd [5]: 0.96 nM
Kd [6]: 25.2 nM
koff [6]: 0.0155 s⁻¹
kon [6]: 614000 M⁻¹ s⁻¹
B2: Fab0002 (Fab, V domains shown)
VH: EVQLVQSGAEVKKPGASVKVSCKASGYTFTSYWMHWVRQAPGQRLEWIGEINPTNGRTNYIEKFKSRATLTVDKSASTAYMELSSLRSEDTAVYYCARGTRAYHYWGQGTMVTVSS
VL: B1 VL with L4M, K28N, A43S, I48V, L53N, S56D

Kd [1]: 0.19 nM
Kd [2]: 0.331 nM
koff [2]: 0.000614 s⁻¹
kon [2]: 1.86e+06 M⁻¹ s⁻¹
Kd [3]: 0.19 nM
Kd [4]: 11.9 nM
Kd [5]: 1.18 nM
Kd [6]: 3.88 nM
koff [6]: 0.0108 s⁻¹
kon [6]: 2.78e+06 M⁻¹ s⁻¹
B3: Fab0072 (Fab, V domains shown)
VH: B1 VH with F27Y, T30N, T58F
VL: B1 VL with K28N, S31R, T52R, L53N

Kd [1]: 0.43 nM
Kd [2]: 0.553 nM
koff [2]: 0.000865 s⁻¹
kon [2]: 1.56e+06 M⁻¹ s⁻¹
Kd [3]: 0.45 nM
Kd [4]: 53.3 nM
Kd [5]: 0.74 nM
Kd [6]: 8.13 nM
koff [6]: 0.0112 s⁻¹
kon [6]: 1.38e+06 M⁻¹ s⁻¹
B4: Fab0071 (Fab, V domains shown)
VH: B1 VH with F27Y, T30N
VL: B1 VL with K28G, T52R, L53N

Kd [1]: 0.46 nM
Kd [2]: 0.471 nM
koff [2]: 0.000782 s⁻¹
kon [2]: 1.66e+06 M⁻¹ s⁻¹
Kd [3]: 0.46 nM
Kd [4]: 17.5 nM
Kd [5]: 2.14 nM
Kd [6]: 4.31 nM
koff [6]: 0.0105 s⁻¹
kon [6]: 2.44e+06 M⁻¹ s⁻¹
B5: Fab0074 (Fab, V domains shown)
VH: B1 VH with F27Y, T30K
VL: B1 VL with K28G, T52K, L53N

Kd [1]: 0.32 nM
Kd [2]: 0.351 nM
koff [2]: 0.00065 s⁻¹
kon [2]: 1.85e+06 M⁻¹ s⁻¹
Kd [3]: 0.29 nM
Kd [4]: 8.68 nM
Kd [5]: 1.95 nM
Kd [6]: 2.85 nM
koff [6]: 0.00677 s⁻¹
kon [6]: 2.38e+06 M⁻¹ s⁻¹
B6: Fab0073 (Fab, V domains shown)
VH: B1 VH with F27Y, T30K
VL: B1 VL with K28N, S31R, L53K
